This note sets out measurements from paper PMC314469, “Protein Interaction Networks by Proteome Peptide Scanning” (PLoS Biology, 2004).

The chains are these.
T1: Abp1 SH3 (ABP1_YEAST), P15891
T1 chain: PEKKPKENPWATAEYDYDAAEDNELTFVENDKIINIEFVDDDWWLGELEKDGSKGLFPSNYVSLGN

This experiment addresses T1, Abp1 SH3 (ABP1_YEAST), P15891. Description: SPOT array.
IYLTKLFMEWPFKP [YMR228W 312-325] returned a normalised SPOT signal, Boehringer light units (BLU); mean over the file's lines of this peptide of 118.

In turn, ILVSLLIHSLPRKP [YGL104C 354-367] displayed a normalised SPOT signal, Boehringer light units (BLU); mean over the file's lines of this peptide of 176.

Turning to IPSENNIFFIPQKP [YPL147W 673-686], the normalised SPOT signal, Boehringer light units (BLU); mean over the file's lines of this peptide is 79.8.

The molecule KDVQPFIPKSLRP [YGR175C 289-301] displayed a normalised SPOT signal, Boehringer light units (BLU); mean over the file's lines of this peptide of 2320.

Molecule IPLLKEKPNALKP [YOR001W 149-161] came in with a normalised SPOT signal, Boehringer light units (BLU); mean over the file's lines of this peptide of 2180.

Regarding ILKQDLIPSIGKP [YNR027W 300-312], the normalised SPOT signal, Boehringer light units (BLU); mean over the file's lines of this peptide amounted to 73.

In turn, ISPVIIPLGNPKRP [YGR177C 149-162] came in with a normalised SPOT signal, Boehringer light units (BLU); mean over the file's lines of this peptide of 90.9.

IKPPKHIRNEPVKP [YHR037W 22-35] returned a normalised SPOT signal, Boehringer light units (BLU); mean over the file's lines of this peptide of 87.3.

In the case of KAGGPRAPQGPRP [YJL008C 549-561], the normalised SPOT signal, Boehringer light units (BLU); mean over the file's lines of this peptide turned out to be 209.

The molecule KDPANISMILPSKP [YBR260C 525-538] returned a normalised SPOT signal, Boehringer light units (BLU); mean over the file's lines of this peptide of 112.

The molecule ILYKSNDVELPGKP [YMR094W 38-51] came in with a normalised SPOT signal, Boehringer light units (BLU); mean over the file's lines of this peptide of 0.

Regarding KSEPELYPNGIKP [YBR058C 403-415], the normalised SPOT signal, Boehringer light units (BLU); mean over the file's lines of this peptide was 13.7.

Consider ITELISGYMLPLRP [YJL212C 542-555], for which the normalised SPOT signal, Boehringer light units (BLU); mean over the file's lines of this peptide worked out at 149.

As for IYDVIEVVPEPGKP [YDR301W 1056-1069], the normalised SPOT signal, Boehringer light units (BLU); mean over the file's lines of this peptide was 80.4.

Regarding ILEEDLNPDAPPKP [YPL057C 39-52], the normalised SPOT signal, Boehringer light units (BLU); mean over the file's lines of this peptide turned out to be 76.3.

ILAILQELSLPSRP [YGR002C 424-437] showed a normalised SPOT signal, Boehringer light units (BLU); mean over the file's lines of this peptide of 15.7.

For ITSYAVSPYAQKP [YJL166W 24-36], the normalised SPOT signal, Boehringer light units (BLU); mean over the file's lines of this peptide is 90.7.

Regarding KAEMKAGTTAPPKP [YLR234W 517-530], the normalised SPOT signal, Boehringer light units (BLU); mean over the file's lines of this peptide is 211.

IRPDGRLPHQFRP [YDL111C 21-33] registered a normalised SPOT signal, Boehringer light units (BLU); mean over the file's lines of this peptide of 1260.

On to INQFGIVPLGPKP [YGR154C 339-351], for which the normalised SPOT signal, Boehringer light units (BLU); mean over the file's lines of this peptide came to 133.

Regarding IRRYLRVPNELKP [YJL004C 4-16], the normalised SPOT signal, Boehringer light units (BLU); mean over the file's lines of this peptide was determined as 105.

ILTFSTKKSKPIRP [YMR259C 332-345] came in with a normalised SPOT signal, Boehringer light units (BLU); mean over the file's lines of this peptide of 1350.

KDPKSFPPPPLKP [YBR108W 81-93] displayed a normalised SPOT signal, Boehringer light units (BLU); mean over the file's lines of this peptide of 1320.

INPLGITPLGPKP [YKR076W 353-365] gave a normalised SPOT signal, Boehringer light units (BLU); mean over the file's lines of this peptide of 9.5.

Consider ISLDSPIPENIKP [YNL102W 567-579], for which the normalised SPOT signal, Boehringer light units (BLU); mean over the file's lines of this peptide worked out at 95.3.

For the molecule IPTRENTPSAFKP [YDL231C 441-453], the normalised SPOT signal, Boehringer light units (BLU); mean over the file's lines of this peptide amounted to 204.

The molecule IPGLGYLENNPGRP [YOL146W 66-79] returned a normalised SPOT signal, Boehringer light units (BLU); mean over the file's lines of this peptide of 155.

The molecule IVFKNVSFTYPTRP [YLR188W 432-445] registered a normalised SPOT signal, Boehringer light units (BLU); mean over the file's lines of this peptide of 87.

For ISRWVNFPWDAKP [YIL085C 295-307], the normalised SPOT signal, Boehringer light units (BLU); mean over the file's lines of this peptide was 172.

In turn, IMSPVGNPEGPEKP [YKL060C 311-324] returned a normalised SPOT signal, Boehringer light units (BLU); mean over the file's lines of this peptide of 153.

ISKWTIMPHPNRP [YOL008W 136-148] yielded a normalised SPOT signal, Boehringer light units (BLU); mean over the file's lines of this peptide of 1030.

Take KEKKVTFDIEPYKP [YBR143C 103-116]: the normalised SPOT signal, Boehringer light units (BLU); mean over the file's lines of this peptide was determined as 63.6.

For ILVESSSPLSSKP [YGL248W 276-288], the normalised SPOT signal, Boehringer light units (BLU); mean over the file's lines of this peptide is 52.3.

The molecule KARHVLYPKGVKP [YDR463W 278-290] yielded a normalised SPOT signal, Boehringer light units (BLU); mean over the file's lines of this peptide of 174.

Regarding IPILIKMSRSPPRP [YDR243C 233-246], the normalised SPOT signal, Boehringer light units (BLU); mean over the file's lines of this peptide came out at 2420.

For KDSPSFLPGQQRP [YNL167C 92-104], the normalised SPOT signal, Boehringer light units (BLU); mean over the file's lines of this peptide turned out to be 71.8.

The molecule IKPDAVVPERVKP [YPR171W 226-238] returned a normalised SPOT signal, Boehringer light units (BLU); mean over the file's lines of this peptide of 38.6.

INLANEQPVLEKP [YDR227W 195-207] displayed a normalised SPOT signal, Boehringer light units (BLU); mean over the file's lines of this peptide of 105.

In turn, KDIPVKSDDTPAKP [YGL009C 527-540] had a normalised SPOT signal, Boehringer light units (BLU); mean over the file's lines of this peptide of 75.1.

IQESMKHPKHFRP [YKL146W 503-515] came in with a normalised SPOT signal, Boehringer light units (BLU); mean over the file's lines of this peptide of 822.

As to ILIGLLKDILPQRP [YNR011C 357-370], the normalised SPOT signal, Boehringer light units (BLU); mean over the file's lines of this peptide was found to be 97.3.

As for IPEYILDPNAQKP [YAL058W 299-311], the normalised SPOT signal, Boehringer light units (BLU); mean over the file's lines of this peptide was 50.

ISSQIAQPYEDRP [YDR280W 60-72] gave a normalised SPOT signal, Boehringer light units (BLU); mean over the file's lines of this peptide of 43.3.

In turn, KDDKAMEPPNEKP [YDL193W 7-19] displayed a normalised SPOT signal, Boehringer light units (BLU); mean over the file's lines of this peptide of 118.

For the molecule ITKILRIIGFPSRP [YNL247W 569-582], the normalised SPOT signal, Boehringer light units (BLU); mean over the file's lines of this peptide came out at 43.2.

Molecule IRGFKSKPGTAKP [YDR409W 265-277] showed a normalised SPOT signal, Boehringer light units (BLU); mean over the file's lines of this peptide of 434.

On to IPSGKVDPVTKKP [YJR024C 135-147], for which the normalised SPOT signal, Boehringer light units (BLU); mean over the file's lines of this peptide is 21.

In turn, ISNLGGKSIDPHKP [YNL212W 461-474] showed a normalised SPOT signal, Boehringer light units (BLU); mean over the file's lines of this peptide of 91.3.

Consider ISGVYYSNWSPYKP [YDR371W 74-87], for which the normalised SPOT signal, Boehringer light units (BLU); mean over the file's lines of this peptide is 91.7.

In the case of ILDKTSPETAPHKP [YOR176W 118-131], the normalised SPOT signal, Boehringer light units (BLU); mean over the file's lines of this peptide was 86.1.

INLAVNMPPGQRP [YEL055C 74-86] gave a normalised SPOT signal, Boehringer light units (BLU); mean over the file's lines of this peptide of 163.

Turning to ISMIPRYPVTSRP [YDL056W 329-341], the normalised SPOT signal, Boehringer light units (BLU); mean over the file's lines of this peptide came to 2470.

IPPPQTLPNGQKP [YGL222C 52-64] had a normalised SPOT signal, Boehringer light units (BLU); mean over the file's lines of this peptide of 57.2.

INAYSNIPPQQRP [YCR033W 972-984] gave a normalised SPOT signal, Boehringer light units (BLU); mean over the file's lines of this peptide of 84.6.
